According to the DeepSol protein solubility set:

Experiment: soluble on expression in E. coli; label from the status in PepcDB or PDB records

Row | Sequence | soluble on expression in E. coli
1 | MRRARIQIKPNISKAAKQEPPPEPAPVVEETLPQAPVVAEPRILENVETMTNQVSLTVASESMKSLHVDTSKNHHVHFTDDVIDNEQNRIQETPDIVMISPTSQQNAQFASPNPPARLTPRSRNVSMCEDEAILQPKQPRDKKRFSGREELDTKTWKMSDLTRWNPKNEMTRFKRERRSSTSSSVITKSEIGDLDAPPAPRINAPQVKIGADGRLVIDETSLVVHSAQINHESVWETVEEGRMGAKITSMSFRKRGFGKSSFWSEKETDLFYEVLQCTGQDFGLMSHYLPKRTRPELKAKYNREEKINWARVLNAISHPVRLDGNLEVRISKLMTEMEEEAQEKKAKGEYEKAEEKRIREQNRLQKATERNQAKELVKQAKELERDARNAAKLNMKADKEARAQEKSETRQLEKTALKEARLMATEAKRIAMEARAIIKESRKLEKSKKADSVQSDSHNLEREAERIIRRLLQESQREDRRTAHFNKNDKPAAPKSTEEATTSEVSAPTKSPAPVVVTIDASEGELGDTSTDAADSSSASSSDDDALRKDAARREKQRMKEARRNLKPRKTVADKKPVYVDTTDPKYAQQKVSRAVEMVLKANGNMFDSAGEQDDDFPDPDEMETSAEPVVVEEVAPDPTPPPPENMEENVVEESVPQSVIDVVEEIMRGRSKTPVETAVKPLENTEESKTDGEDRKKRSADVDSGGPSPKVARLEGVDVPVEDSTEVATSSTVTSSSAPSSSSSTTVAPAIKPSTAPKPAIASARRTVKKPNTWSKKK | not soluble
2 | MSLYKLIALDMDGTLLNSQKQISPRTKQAIAQARQQGIQVVLASGRPLDGMRSKLEELHLTTENDYVLYYNGSMVANVGTGEIIHQQIIDGKAAKRVATLAQEFGLNTHAFSQIHGLITPKTSQYTEVEASINGLNITEMDFAQLADDHPIIKAMIVGEPEKLTQAIAQLPAQWREEFTVVQSAPFFLEFLNTGSNKGIGVQAIAAHLGIQASEVICMGDAENDHHMLQYAGLGIAMANAMEETKHIADHITLSNDHDGVAVAIERFALGCFSEGHHHHHH | soluble
3 | MKIKHLPFDQNRNGWSADLVDKPNYPQQRGKTTADWLVIGAGYAGIAFAQRLAEQRPDKHIILLDAGEIGDNASGRNSGFVIDLPHNIGSSTAELEKAAAYRRLLQSGVAHLKEKVDRHAIACDWSVAGKYHCAVSSTFNGLIDTYVRELNGLGEPYQVVEKDELARRLGTSFYQRAVYTPNCILLNPAALVIGLVASLPKNVTVYAHSPALNIETGSRIRVETPYGEIQADKLMMAINGAARGLPLFNGRVFAVTTFATLTEPLNAEQTARMGDMPDWGLTPVNALASATLRYTRDHRFLIREHVKFAPELVNSAVETGRHARRHAAIFARMFPQLSDVKMAHTWSGLISVTRNGAPIWGQLSDNVFASAGCNGAGLSKQTAAGHILADLALGEDNPLISDMQSLGQANYLPPRPFLDVGVNGYLTSERWKARSERLEHHHHHH | not soluble
4 | MSLRTSASLAGSLAYGMADFLGRSEHLSIIDMIVPRMRQDNVETVVGMFDGQPSSTGGSRVAKFLHENFLHTFSAELKRLRRDEQETPLDAFRRTFLTLNRNMAFACYKSIDQDVRLFQEDSSDQKKVRLNKEDLQSGGVATVLYLNNTDLYAANIGDAQAILVKSDGSMRYLTRNHDPAEAGERARIRAAGGFVSRNGRLNDYLPVSRSFGYFNLMPAVIAAPHTMHVSLTEQDEMIILASKELWDYVTPDLVVDVTRAERRDLMVAAQKIRDLALSFGANNKLMVMILGVGDLREGHHHHHH | soluble
5 | SSSLTSENAETKVGVFWDVEECPVPDGVEPSVVCENIKLALEKKGYRPCNVSIRVYGERTNKFKDDFLLADIMFLPAGDEGARFMRMCNDFFCWGNDNRKSTLMVMSRDSTEFASSFVMYKNLNFNILVAQPENVDRKCPVCRKPLEMIITDEWVWESLSAGGDPLPKTQEEPDLSNSCH | soluble
6 | GPGSMIGAPWPPEAVFGNTVDRVASPAPVPERKISIADQLHLPLSRFVEKMSWGEKRRVQILHGMLYPATVYLLDECSTDIDVAERRTVLELVRQECEAKDGCCVYATHIFDGIEGWATHLLLMEGGRVVDFKAVEKLTLPLEDYALQFMSKRAHAARGVDGVAAASLSHGSSAAISTTS | soluble
7 | GHHHHHHAIAENLYFQSEVSKANGTENNVEKFDAATQEATYLDEADVDAELEAMKKRLQEMEEEANRLKEVQEQSASEVPSSEEVDRRSVYVGNVDYGSTPEELQAHFKECGTINRVTILCDKFTGHPKGFAYIEFATEEGANNAVILNESLFRGRNLKVSIKRTNVPGISTTDRGRGRGFPRGIGFRGRGGLRGGFRGRGYHGFRGRGRMTPY | not soluble
8 | MTIREEGLIVKDQVLSCYLKGKRCLFVIVKILKDSSNSFLCTVQNKNGDQYVKKWFRKHENNEKLGRPTFKEVEKDWKENKESFMYPNVKALY | not soluble
9 | GHMSAHVQQDKYETNVSYKKLNQLAPYFKGFDGSFVLYNEREQAYSIYNEPESKQRYSPNSTYKIYLALMAFDQNLLSLNHTEQQWDKHQYPFKEWNQDQNLNSSMKYSVNWYYENLNKHLRQDEVKSYLDLIEYGNEEISGNENYWNESSLKISAIEQVNLLKNMKQHNMHFDNKAIEKVENSMTLKQKDTYKYVGKTGTGIVNHKEANGWFVGYVETKDNTYYFATHLKGEDNANGEKAQQISERILKEMELI | soluble
10 | MGSSHHHHHHSSGLVPRGSHMDFYKLDEKLKELKRKRVDVSIKSRKLADREIQEVSANRKPRVYSMEDVNDADESVGDTESPEKEKAFHYTVQEYDAWERRHPQGKTGQSQRGGISYDQLAKLSYEKTLRNLATQTQNSSKQDSSADEEDNKNVPKKGRIGKVQKDTKTGKITIADDDKLVNKLAVSLQSESKKRYEARKRQMQNAKTLYGVESFINDKNKQFNEKLSRESKGSE | soluble
11 | MGSDKIHHHHHHQPPFPAPPAVRDIDCLEQDLMVYARALPQPDAPLLTLQDQERQTGFFLRRFFAAWDMRAPSMPRHTMFADLRATLDGKGWGANLLPVPPARTESLWQRCRTGEYPSLAVPAIITGNTSLRMAPDDEPFFRDPARAGEGYPFDYFQYSALWAGMPVFVVHASSDGGWLLCETPLAAGWVRARDVAYVDSGFMNAYRTGMYAAVVADDTPLRTAEGRWVLTAHTGAVFPVDKADAAGLVLRVPVRGADGGAGIRLVHVSYGAAARMPLPLTPVAVAMVGNGMMRQPYGWGGLLENRDCSAAMHDLFAPFGIWLPRNSSQQARAGALVSLEEMTPPQREAHILEQGVPFFSFIWMRGHIGLYLGPDRQDCAAGKPLMFHNVWGIRTGGGRAPEGRLVIGRAVVTTLHAGEEYPQVRKNWMLDRIRGLTLLPPQVP | not soluble
12 | MAHHHHHHMDVKLGTIISRFTFTLPSLYDDGRDDYDATVSSPDDAATEESCGVAFTSGTHCDEARKTPKTTQAGSRSHVARFGAPASPTEKLDITGAYAFVSHGGAASSASLAAPSSPPPLLGRAAARGDRNNSTVAAPQHDVGDRGGGAVRYGTSLHLPDLVQLAAHAWNVELHCGSTGAASHCVLRLPPFVLGSTLYRGPVVYVLASGVVRMATHGSVAATELLARRVRDALHEACKPLAVRRAAREELLLMRAVLEDSLSDMLEDEGGEEGPARHLCTAVLKAEARLPSSGVSLSTALAADTAMSSQHGRRAAFGSSAAAARIGPMARDKAGHGLPTLVSTPSVLSARGCKIDFLQAVATPRWDEIVGLRASLFAPASAAPGSENSGGGGVAKADRDAEGAPRVSVRRASVNVRGDAPMEWWRWYLGVQADDHGVGGGDGSGAARRGGGAPSAAAANSEEPFPGDCSGVPLLGSWLSGDASEGGNADARSSNKTTGFWTCAGYADASPENAASFVHFLQRRRALLAHHVASFKLRRQATQNSLQILLDWRTATPPTPPAPPAPLSAAAAPLMGRPPLARALVGHPMAVAQPLPDSGTPSVPAAPTRTNISGNTWVTEASAANFFMESTFIAESAAPFELESVRMPTDRMSSADPALPVSMALGDRNVANPCGSTALAPDSGCGSMSALLEPSVGHSVLRYDSSSSKDDRTAAKAAPEKRMRGVAAAQASAANRDEAASAAMEHVTCLIHRTGRVQMTAASELALRQMCAMLLIPFLVATAEVEL | not soluble
13 | MGSDKIHHHHHHMSFFPGPDPLAGDKPACDAIEHLIIPRTSDIGGLQVRRALPTAKRRLVGPFIFFDRMGPALLRAGQAIDVRPHPHIGLSTVTYLFDGEIKHRDSLGTEMVIRPGDVNLMTAGRGIVHSERSPENQRGHERSLSGLQTWLALPDAMEEIDPVFAHTEERMLPHLADGGVRARVVIGQFEGAASPVSTFTDTIYVDLMIEPGKSAPFAANWEERALYILSGEAIIAGDHFDNNQLLVFRPGDEITITAGPAGCHVMLFGGAALGSPRHIWWNFVSSSKERIDKAKEEWRTGRFDIVPGDEEEFIPLPAS | not soluble
14 | IEEVYEATLDAIQGALNCDRASILLFDEAGTMRFVAARGLSEHYQRAVDGHSPWITGANEPEPIFVENVDDAEFSRELKESIVGEGIAALGFFPLVTEGRLIGKFMTYYDRPHRFADSEIGMALTIARQLGFSIQRMRAEYARRQAEE | soluble
15 | MSLSKILPVVTACLLATTMGASASSIPEKASVCSGCHGQDGMGQPNIAPMIAGLNANYLNTQIELFLSGERQNVVMQGMAKELSDPAVRKEVMNYFANLPSYEFTNPEQRGDQADIRNPYRKLIFQGDWDRNIPACATCHGASGMGVDKFPRLASQHADYLKTQLMAWKIGTRSGDPLNMMGTIAKNLTDEEIENLSYYFASLRYEGHHHHHH | not soluble
16 | GAMAWGSSWLLLKNLTAQIDGPTLRTLCMQHGPLVSFHPYLNQGIALCKYTTREEANKAQMALNNCVLANTTIFAESPSENEVQSIMQH | soluble
17 | MRTSSGQILTVTKEISLQASPTEIWSELIHINEVDSIEKKSIISSTLGFPRHIRTHLDTARVGGKRTAYYEKGLTFEETITAYEPERLMILDIKTDPDKISAQVMDEHILIGGKHLDILEDTYELQALSNGCSKLKLTSKFYINTPFNWYAGLWGNYLMSDILKNELELIKNRAEAKLEHHHHHH | soluble
18 | MAHHHHHHMGTLEAQTQGPGSMNAGLDQVDPIWHSIRAEAEEATRNDPVLGAFLYATILNQPSLEEAVMHRIAERLGHPDVSADILRQTFDTMLEANPEWSHVLRVDIQAVYDRDPAYSRFMDPVLYLKGFHAIQTHRLAHWLYKQGRKDFAYYLQSRSSSIFQTDIHPAARLGSGLFLDHATGLVVGETAVVEDNVSILHGVTLGGTGKSSGDRHPKIRQGVLIGAGAKILGNIQVGQCSKIAAGSVVLKSVPHNVTVAGVPARIIGETGCTEPSRVMDQMLGDGI | soluble
19 | MALSSAPILITGASQRVGLHCALRLLEHGHQVIISYRTEHASVAQLRQAGAHTLHGDFSSEASIMAFIEQLKSHTSSLRAIVHNASEWLAETPGDEAENFTRMFSVHMLAPYLINLHCEALLHASDVADIVHISDDVTRKGSSKHIAYCATKAGLESLTLSFAARFAPLVKVNGIAPALLMFQPKDDAAYRANALAKSAMGIEPGAEVIYQSLRYLLDSTYVTGTTLTVNGGRHV | not soluble
20 | MAHHHHHHMYTRDVSDRISGISAADLAQRLVEVSARNTARDGALSPSVCQRPLPHCVSALLWDAKCAGAAPPRTALLRGDVVDMTSSVSDATLSCVALSDDVRFRFARSRHRRLTGILSSTAAPLPPRMCRVDVTHFYWMDECAPGLTYDDQSVLSTVLQKRIVQWAVSAFARNPLLRNISLQALEAVFPALLAFSPREREELLKHAAELLGQGTLIWYGQAMIKQFHESAASLALSLLTSSEERCSAALLFALATAQEVMGARRDDAAQALRFLLEVYGVRGVALSPALTTAALLVSRATVPLCTRRCLGAGSRQHHLLQPYLFPLSCAHVETLPWIPHNTHTSSPEHLRELVRRAREAAAAVLATAAPCTATTAQKRHAHEDDVNAFFSANHALEIHRDTLVTHASGDVPSSLPALKAADSGAAARSRLLEAAPKWWEQEAKASNSDTAREETELKLHVKAAAAELREPHGSDHALLAVIHRTRKRQRNREQPTAQTVEAALEGAAIRLKRRAFLQLVDIFALNAHTEDRDGKARQYLEQHHVAEAQIRDFTTLLSSTRKT | not soluble
